# From patent US20110207628A1
# Experiments:
# [1] = molecular target: Axl-Fc (Axl extracellular domain fused to human IgG1 Fc fragment) (human); test: clonal phage on immobilized Axl-Fc, plaque assay
# [2] = molecular target: tubby-N (N-terminus of mouse tubby, 1M-242P), GST-free (mouse) (UniProt P50586); test: clonal phage on immobilized tubby-N, plaque assay
# [3] = molecular target: FLAG-tubby-F (full-length mouse tubby with N-terminal FLAG tag) (mouse) (UniProt P50586); test: clonal phage on immobilized FLAG-tubby-F, plaque assay
# Chain of FLAG-tubby-F (full-length mouse tubby with N-terminal FLAG tag) (mouse) (P50586 other isoform, or with tags, fused parts or gaps): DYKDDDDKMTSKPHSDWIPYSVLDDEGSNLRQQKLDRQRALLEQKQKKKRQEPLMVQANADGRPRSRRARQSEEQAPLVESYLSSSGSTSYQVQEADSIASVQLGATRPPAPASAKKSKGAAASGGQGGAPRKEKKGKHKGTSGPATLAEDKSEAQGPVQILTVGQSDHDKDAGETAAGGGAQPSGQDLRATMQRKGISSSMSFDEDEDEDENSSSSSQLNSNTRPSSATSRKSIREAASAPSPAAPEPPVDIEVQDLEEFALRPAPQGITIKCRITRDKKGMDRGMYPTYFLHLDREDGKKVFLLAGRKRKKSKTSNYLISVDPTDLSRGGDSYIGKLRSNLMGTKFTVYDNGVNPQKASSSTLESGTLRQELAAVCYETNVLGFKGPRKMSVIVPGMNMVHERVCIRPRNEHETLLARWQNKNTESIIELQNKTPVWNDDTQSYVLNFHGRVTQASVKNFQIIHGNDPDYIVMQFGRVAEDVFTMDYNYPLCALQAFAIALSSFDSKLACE
# Chain of tubby-N (N-terminus of mouse tubby, 1M-242P), GST-free (mouse) (P50586 1-242): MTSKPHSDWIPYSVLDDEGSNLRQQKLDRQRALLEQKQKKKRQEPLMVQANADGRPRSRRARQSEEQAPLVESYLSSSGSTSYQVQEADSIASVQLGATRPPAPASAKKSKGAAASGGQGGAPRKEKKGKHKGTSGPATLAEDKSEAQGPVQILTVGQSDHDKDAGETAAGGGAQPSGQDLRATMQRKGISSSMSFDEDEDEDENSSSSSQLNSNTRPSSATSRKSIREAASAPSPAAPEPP
Substance,Binding activity (pfu ratio of clonal phage binding to immobilized Axl-Fc versus blank) [1],Binding to tubby-N (binding specificity of clonal phage vs. control phage) [2],Binding to tubby-F (binding specificity to FLAG-tubby-F vs. to GFP-FLAG) [3]
"PH180: Lectin, galactose binding, soluble 3 (Lgals3) 131Y-264I, phage clone (from UniProt P16110 131-264)",1380 X (fold),,
"Unknown protein encoded by Chromosome X Genomic contig, alternate assembly (NW_001035178, 7824017-7824523 bp), phage clone",,40.1 X (fold),3.1 X (fold)
"Paf1/RNA polymerase II complex component (Rtf1) 69N-186K, phage clone (from UniProt A2AQ19 69-186)",,,6.2 X (fold)
"High mobility group box 2-like 1 (Hmgb211) 170K-305G, phage clone",,29.8 X (fold),5 X (fold)
